# According to patent US12303551B2, “Cellular immunotherapy compositions and uses thereof” (CERO THERPEUTICS HOLDINGS, INC., priority 2018, dated 2025):
# B1: CER104: Chimeric engulfment receptor: Tim4 binding, Tim4 transmembrane, TLR8 and DAP12 signaling; SEQ ID NO: 139 (protein)
# chain: MSKGLLLLWLVTELWWLYLTPAASEDTIIGFLGQPVTLPCHYLSWSQSRNSMCWGKGSCPNSKCNAELLRTDGTRIISRKSTKYTLLGKVQFGEVSLTISNTNRGDSGVYCCRIEVPGWFNDVKKNVRLELRRATTTKKPTTTTRPTTTPYVTTTTPELLPTTVMTTSVLPTTTPPQTLATTAFSTAVTTCPSTTPGSFSQETTKGSAFTTESETLPASNHSQRSMMTISTDIAVLRPTGSNPGILPSTSQLTTQKTTLTTSESLQKTTKSHQINSRQTILIIACCVGFVLMVLLFLAFLHHLFYWDVWFIYNVCLAKVKGYRSLSTSQTFYDAYISYDTKDASVTDWVINELRYHLEESRDKNVLLCLEERDWDPGLAIIDNLMQSINQSKKTVFVLTKKYAKSWNFKTAFYLALQRLMDENMDVIIFILLEPVLQHSQYLRLRQRICKSSILQWPDNPKAEGLFWQTLRNVVLTENDSRYNNMYVDSIKQYYFLGRLVPRGRGAAEAATRKQRITETESPYQELQGQRSDVYSDLNTQRPYYK
# modifications: CER104, amino acids 1-22 are signal peptide
# B2: CER116: Chimeric engulfment receptor: Tim4 binding, Tim4 transmembrane, TRAF6 and TLR8 signaling; SEQ ID NO: 152 (protein)
# chain: MSKGLLLLWLVTELWWLYLTPAASEDTIIGFLGQPVTLPCHYLSWSQSRNSMCWGKGSCPNSKCNAELLRTDGTRIISRKSTKYTLLGKVQFGEVSLTISNTNRGDSGVYCCRIEVPGWFNDVKKNVRLELRRATTTKKPTTTTRPTTTPYVTTTTPELLPTTVMTTSVLPTTTPPQTLATTAFSTAVTTCPSTTPGSFSQETTKGSAFTTESETLPASNHSQRSMMTISTDIAVLRPTGSNPGILPSTSQLTTQKTTLTTSESLQKTTKSHQINSRQTILIIACCVGFVLMVLLFLAFLMSLLNCENSCGSSQSESDCCVAMASSCSAVTKDDSVGGTASTGNLSSSFMEEIQGYDVEFDPPLESKYECPICLMALREAVQTPCGHRFCKACIIKSIRDAGHKCPVDNEILLENQLFPDNFAKREILSLMVKCPNEGCLHKMELRHLEDHQAHCEFALMDCPQCQRPFQKFHINIHILKDCPRRQVSCDNCAASMAFEDKEIHDQNCPLANVICEYCNTILIREQMPNHYDLDCPTAPIPCTFSTFGCHEKMQRNHLARHLQENTQSHMRMLAHHLFYWDVWFIYNVCLAKVKGYRSLSTSQTFYDAYISYDTKDASVTDWVINELRYHLEESRDKNVLLCLEERDWDPGLAIIDNLMQSINQSKKTVFVLTKKYAKSWNFKTAFYLALQRLMDENMDVIIFILLEPVLQHSQYLRLRQRICKSSILQWPDNPKAEGLFWQTLRNVVLTENDSRYNNMYVDSIKQY
# modifications: CER116, amino acids 1-22 are signal peptide
# B3: CER117: Chimeric engulfment receptor: Tim4 binding, Tim4 transmembrane, TLR8 and TRAF6 signaling; SEQ ID NO: 153 (protein)
# chain: MSKGLLLLWLVTELWWLYLTPAASEDTIIGFLGQPVTLPCHYLSWSQSRNSMCWGKGSCPNSKCNAELLRTDGTRIISRKSTKYTLLGKVQFGEVSLTISNTNRGDSGVYCCRIEVPGWFNDVKKNVRLELRRATTTKKPTTTTRPTTTPYVTTTTPELLPTTVMTTSVLPTTTPPQTLATTAFSTAVTTCPSTTPGSFSQETTKGSAFTTESETLPASNHSQRSMMTISTDIAVLRPTGSNPGILPSTSQLTTQKTTLTTSESLQKTTKSHQINSRQTILIIACCVGFVLMVLLFLAFLHHLFYWDVWFIYNVCLAKVKGYRSLSTSQTFYDAYISYDTKDASVTDWVINELRYHLEESRDKNVLLCLEERDWDPGLAIIDNLMQSINQSKKTVFVLTKKYAKSWNFKTAFYLALQRLMDENMDVIIFILLEPVLQHSQYLRLRQRICKSSILQWPDNPKAEGLFWQTLRNVVLTENDSRYNNMYVDSIKQYMSLLNCENSCGSSQSESDCCVAMASSCSAVTKDDSVGGTASTGNLSSSFMEEIQGYDVEFDPPLESKYECPICLMALREAVQTPCGHRFCKACIIKSIRDAGHKCPVDNEILLENQLFPDNFAKREILSLMVKCPNEGCLHKMELRHLEDHQAHCEFALMDCPQCQRPFQKFHINIHILKDCPRRQVSCDNCAASMAFEDKEIHDQNCPLANVICEYCNTILIREQMPNHYDLDCPTAPIPCTFSTFGCHEKMQRNHLARHLQENTQSHMRMLA
# modifications: CER117, amino acids 1-22 are signal peptide
# Columns and labels:
# SCC152 cells = test: Magnitude breadth analysis of phagocytosis by CER type (pHrodo red / CELLTRACE violet microscopy); assay type: cell-based; details: 8 hours co-culture with SCC152, CD8+/E7 TCR 1:1
# Procedure: Top image is an enlargement of a cell in the lower left image showing a SCC152 cell engulfed by CER126-transduced CD4+ T cell. […] White arrow indicates CD8+ T cell transduced with E7-specific TCR and that is pHrodo Red negative (lower left panel of FIG. 60B). Software rendition of phagocytosis (lower right panel of FIG. 60B).
# Various CER-modified CD4+ T cells were also evaluated for breadth of response to determine whether a particular CER confers a broad phagocytic response of low magnitude (e.g., 10% engulfment in 90% of cells) or a less frequent but strong phagocytic response (e.g., 90% engulfment in 10% of cells) in the host cells. CD8+ T cells were transduced with HPV16 E7 specific TCR as described in Example 1. CD4+ T cells were transduced with lentiviral vectors comprising a CER21, CER27, CER104, CER116, or CER117 nucleic acid. Mock-transduced (vector alone) CD4+ T cell were used as control. CD4+/CER+ and CD8+/E7 TCR+ T cells were stained with CELLTRACE violet. HPV16 E7+ head and neck squamous cell carcinoma cells (SCC152) were stained with pHrodo red. HPV16 E7 TCR transduced CD8+ T cells and selected CER transduced CD4+ T cells were mixed at a 1:1 ratio and co-cultured with SCC152 cells at a 1:1 ratio for 8 hours. Phagocytosis of target SCC152 cells by CER-transduced CD4+ T cells was analyzed by fluorescence microscopy. […] The horizontal axis represents the % area of CER-transduced CD4+ T cells having engulfment or % area of the CER-transduced CD4+ T cells taken up by target SCC152 cells. This measure was rarely above 40% across CER types tested. The vertical axis represents the proportion of CER-transduced CD4+ T cells that were phagocytic. For CER104, about 20% of CER104-transduced CD4+ T cells have more than 10% engulfment. For CER117-transduced CD4+ T cells, less than 10% have more than 10% engulfment.
# HPV+ SCC152 target cells = test: Mass cytometry (CyTOF) viSNE marker analysis of CER-transduced CD4+ T cells after antigen encounter; assay type: cell-based; details: for memory formation after antigen encounter: CER-transduced CD4+ T cells; for viSNE islands expressing T cell activation marker CD69 / viSNE islands expressing intracellular marker IFNγ: CER-transduced CD4+ T cells co-cultured with E7 TCR CD8+ T cells and SCC152; for viSNE islands expressing naïve T cell marker CD45RA within the CCR7+ population: compared to controls
# Description: FIG. 64A-64B show viSNE maps of mass cytometry data of CER-transduced CD4+ T cells upon antigen encounter. CER-transduced CD4+ T cells were co-cultured with E7-specific TCR-transduced CD8+ T cells and HPV+ SCC152 target cells and then interrogated by mass cytometry (CyTof). Intact CER-CD4+ T cells are shown in plots displaying tSNE1 and tSNE2 axes. Nine intracellular markers were used for the viSNE analysis. Each dot represents a single cell. […] FIG. 64B: Populations of CD4^+ T cells were generated using a clustering algorithm from all 32 markers and overlaid onto the viSNE map.
# (§1) FIGS. 65A-65B show viSNE maps of mass cytometry data of CER-expressing CD4+ T cells upon antigen encounter. CER-transduced CD4+ T cells were co-cultured with E7-specific TCR-transduced CD8+ T cells and HPV+ SCC152 target cells and then interrogated by mass cytometry (CyTof). Intact CER-CD4+ T cells are shown in plots displaying tSNE1 and tSNE2 axes. Eighteen cell surface markers were used for the viSNE analysis. Each dot represents a single cell. FIG. 65A: Populations of CD4^+ T cells were generated using a clustering algorithm from all 18 markers and overlaid onto the viSNE map. […] FIG. 65B: Color plots show the phenotype across viSNE ‘islands.’ Red represents high expression and blue represents low expression for each marker. Highlighted region indicates cells expressing T cell activation marker CD69.
# as §1, with “FIGS. 66A-66B” for “FIGS. 65A-65B”, “FIG. 66A:” for “FIG. 65A:”, “FIG. 66B:” for “FIG. 65B:”, “cells the naïve” for “cells expressing”, “cell” for “cell activation”, “marker CD45RA.” for “marker CD69.”
# CD4+ T cells were transduced with lentiviral vector comprising CER104, CER116, or CER117 nucleic acid. CER104 (SEQ ID NO:139) comprises a Tim4 binding domain, Tim4 transmembrane domain, and an engulfment signaling domain comprising a primary engulfment signaling domain comprising a TLR8 signaling domain and a secondary engulfment signaling domain comprising a DAP12 signaling domain. CER116 (SEQ ID NO:152) comprises a Tim4 binding domain, Tim4 transmembrane domain, and an engulfment signaling domain comprising a primary engulfment signaling domain comprising a TRAF6 signaling domain and a secondary engulfment signaling domain comprising a TLR8 signaling domain. CER117 (SEQ ID NO:153) comprises a Tim4 binding domain, Tim4 transmembrane domain, and an engulfment signaling domain comprising a primary engulfment signaling domain comprising a TLR8 signaling domain and a secondary engulfment signaling domain comprising a TRAF6 signaling domain. CER-transduced CD4+ T cells were co-cultured with E7 TCR-transduced CD8+ T cells and HPV+ SCC152 target cells and interrogated by mass cytometry (CyTOF) with viSNE for visualization of high dimensional single cell data (FIGS. 64-66). Intact CER-transduced CD4+ T cells are shown in plots displaying tSNE1 (horizontal) and tSNE2 (vertical) axes. 27 intracellular markers were used for the viSNE analysis. Each dot represents a single cell. […] Red represents high expression and blue represents low expression for each marker. Populations of CD4^+ T cells were generated using a clustering algorithm from all 27 markers and overlaid onto the viSNE map. […] Populations of CD4^+ T cells were generated using a clustering algorithm from all 18 markers and overlaid onto the viSNE map (FIG. 65A). […]
Molecule,proportion of CER-transduced CD4+ T cells having more than 10% engulfment (SCC152 cells),memory formation after antigen encounter (HPV+ SCC152 target cells),viSNE islands expressing T cell activation marker CD69 (HPV+ SCC152 target cells),viSNE islands expressing intracellular marker IFNγ (HPV+ SCC152 target cells),viSNE islands expressing naïve T cell marker CD45RA within the CCR7+ population (HPV+ SCC152 target cells)
B1,about 20%,associated with memory formation after antigen encounter,enrichment of islands expressing the T cell activation marker CD69,enrichment of islands expressing the intracellular marker IFNγ,loss of islands expressing the naïve T cell marker CD45RA
B2,–,associated with memory formation after antigen encounter,enrichment of islands expressing the T cell activation marker CD69,enrichment of islands expressing the intracellular marker IFNγ,loss of islands expressing the naïve T cell marker CD45RA
B3,less than 10%,–,–,enrichment of islands expressing the intracellular marker IFNγ,–
